Residue numbers refer to the chain shown, from its start. Read-outs that look alike come from different tables or passages of the source.
T1: cynomolgus monkey PCSK9 (cynomolgus monkey, UniProt A0A7N9D9N8 150-747)
T1 chain: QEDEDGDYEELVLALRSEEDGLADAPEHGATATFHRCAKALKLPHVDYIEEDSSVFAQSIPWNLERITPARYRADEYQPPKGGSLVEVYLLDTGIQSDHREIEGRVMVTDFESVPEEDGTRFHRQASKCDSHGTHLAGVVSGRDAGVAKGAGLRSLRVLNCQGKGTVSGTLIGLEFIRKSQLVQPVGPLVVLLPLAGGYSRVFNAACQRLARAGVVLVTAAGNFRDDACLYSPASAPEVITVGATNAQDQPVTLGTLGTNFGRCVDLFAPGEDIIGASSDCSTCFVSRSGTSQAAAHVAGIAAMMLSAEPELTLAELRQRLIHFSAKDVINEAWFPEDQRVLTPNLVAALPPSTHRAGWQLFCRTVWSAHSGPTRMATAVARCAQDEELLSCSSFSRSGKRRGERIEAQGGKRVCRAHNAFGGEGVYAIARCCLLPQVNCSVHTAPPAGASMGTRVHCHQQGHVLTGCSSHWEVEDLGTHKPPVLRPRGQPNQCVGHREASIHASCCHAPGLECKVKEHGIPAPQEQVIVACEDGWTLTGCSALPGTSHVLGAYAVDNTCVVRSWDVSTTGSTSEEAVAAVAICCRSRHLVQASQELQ

B1: Ab15 (antibody, V domains shown)
VH: QEQLEESGGDLVKPEGSLTLTCTASGFSFSSSYWICWVRQAPGKGLEWIACIDAGNSGSTYYASWAKGRFTISKASSTTVTLQMTSLTAADTATYFCASDLNDGWLGQFNLWGPGTLVTVSS
VL: NIVMTQTPSPVSGAVGGTVTIKCQASQSISDYLAWYQQKPGQPPKLLIYRASTLASGVPSRFRGSGSGTEYTLTITDLECADAATYYCQSYYSVTTNTYGNTFGGGTEVVVKR
B2: Ab5 (antibody, V domains shown)
VH: QSVEESGGRLVTPGTPLTLTCTVSGFSLSSYAMSWVRQAPGKGLEWIGIISNSGTTYYASWAKGRFTISKTSTTVDLKITSPTTEDTATYFCARGIYWYWRVFNLWGPGTLVTVSS
VL: AVLTQTPSPVSAAVGGTVTINCQASQSVYNNLLSWYQQKPGQPPKLLIYDASNLASGVPDRFSGSGSGTQFTLTISGVQCDDAATYYCLGGYDDDADNAFGGGTEVVVKR
B3: Ab9 (antibody, V domains shown)
VH: QSVEESGGRLVTPGTPLTLTCTVSGIDLSSYAMGWVRQAPGKGLEYIGIIVSYGPTYYASWAKGRFTISKTSTTVDLKITSPTAEDTATYFCARDLDANSSGYYGCFNIWGQGTLVTVSS
VL: AVVLTQTPASVSAAVGGTVTIKCQASQSISTALAWYQQKPGQPPKLLIYAASPLASGVSSRFKSSGSGTEFTLTISDLECADAATYYCQSYYGSSNIAFGGGTELEILR
B4: Ab24 (antibody, V domains shown)
VH: QSLEESGGDLVKPGASLTLTCKASGFSFSSGYYMCWVRQAPGKGLEWIACIYAGSGGSTFFANWAKGRFTISKTSSTTVTLQMTSLTAADTATYFCARDGGYAGYGYAFFNLWGPGTLVTVSS
VL: DVVMTQTPASVSEPVGGTVTIKCQASERIYSGLAWYQQKPGQPPKLLIYGASTLASGVPSRFKGSGSGTDFTLTISDLECDDAAIYYCQATYYGSSYPNVFGGGTEVVVKR
B5: Ab23 (antibody, V domains shown)
VH: B4 VH
VL: B4 VL with A90C
B6: Ab6 (antibody, V domains shown)
VH: QEQLEESGGDLVKPEGSLTLTCTASGFSFSSNYWICWVRQAPGKGLEWIGCIRDGGGTYYASWAKGRLTISMTSSTTVTLQLNSLTAADTATYFCASDINDGWLGQFNLWGPGTLVTVSS
VL: DIVMTQTPASVEVAVGGTVTIKCQASQSISAYLAWYQQKPGQPPKLLIYRAYTLASGVPSRFKGSGSGTQFTLTISDLECADAATYYCQSYYSVTTNTYGNTFGGGTEVVVKR
B7: Ab10 (antibody, V domains shown)
VH: B6 VH with N32S, G50A, D54A, T58N, S62N, L68F, M72R, L82M, N83T
VL: B6 VL with D1N, V13A, A31N, A51T, Y52S, N97V, T98A
B8: Ab7 (antibody, V domains shown)
VH: EVQLVESGGGLVQPGGSLRLSCAASGFTVSSNYWICWVRQAPGKGLEWIGCIRDGGGTYYASSAKGRFTISRDNSKNTLYLQMNSLRAEDTAVYYCASDINDGWLGQFNLWGQGTLVTVSS
VL: DIVMTQSPSSLSASVGDRVTIKCQASQSISAYLAWYQQKPGKVPKLLIYRAYTLASGVPSRFSGSGSGTDFTLTISSLQPEDVATYYCQSYYSVTTNTYGNTFGGGTKVEIKR
B9: Ab8 (antibody, V domains shown)
VH: QEQLVESGGGLVQPEGSLTLTCTASGFSFTSDYYMCWVRQAPGKGLEWIGCISTGDGSTYYASWAKGRFTISKPSSTTVTLQMTRLTAADTATYFCARDRYYSYAYGAYVYASDLWGPGTLVTVSS
VL: DIVMTQTPASVSEPVGGTVTINCQASESIRNYLSWYQQKPGQRPKLLIYGASTLASGVPSRFKGSGSGTDFTLTISDLECADAATYYCQSNYGISSRSYVNGFGGGTEVVVKR
B10: Ab13 (antibody, V domains shown)
VH: QSVEESGGRLVTPGTPLTLTCTVSGIDLSTYGVGWVRQAPGKGLEYIGIISSSGSTYYASWAKGRFTISKTSSTTVDLKMTSLTTEDTATYFCARDWSSTTGYYGYFNMWGPGTLVTVSS
VL: AFELTQTPSPVSAAVGGTVTIKCQASQSISTALAWYQQKPGQPPKLLIYGASNLESGVPSRFSGSGSGTQFTLTISDLECADAAIYYCQSSYGSSTLAFGGGTEVVVKR
B11: Ab22 (antibody, V domains shown)
VH: EVQLVESGGGLVQPGGSLRLSCAASGFSLSSYAMNWVRQAPGKGLEWIGAIRSSGATFFASSVNGRFTISRDNSKNTVYLQMNSLRAEDTAVYYCARDTNDGWYINRLDLWGQGTLVTVSS
VL: AVLTQSPSTLSASVGDRVTITCQSSKSVYSNYLSWFQQKPGKAPKFLIYKASTLASGVPSRFSGSGSGTEFTLTISSLQPDDFATYYCAGGDTNIADNAFGGGTKVEIKR

How the values were obtained:
[1] = target: T1, cynomolgus monkey PCSK9; test: ELISA
[2] = target: T2, human Proprotein Convertase Subtilisin-like/Kexin type 9 (UniProt Q8NBP7 31-692); test: ELISA
Target sequence in this assay (Q8NBP7 31-692): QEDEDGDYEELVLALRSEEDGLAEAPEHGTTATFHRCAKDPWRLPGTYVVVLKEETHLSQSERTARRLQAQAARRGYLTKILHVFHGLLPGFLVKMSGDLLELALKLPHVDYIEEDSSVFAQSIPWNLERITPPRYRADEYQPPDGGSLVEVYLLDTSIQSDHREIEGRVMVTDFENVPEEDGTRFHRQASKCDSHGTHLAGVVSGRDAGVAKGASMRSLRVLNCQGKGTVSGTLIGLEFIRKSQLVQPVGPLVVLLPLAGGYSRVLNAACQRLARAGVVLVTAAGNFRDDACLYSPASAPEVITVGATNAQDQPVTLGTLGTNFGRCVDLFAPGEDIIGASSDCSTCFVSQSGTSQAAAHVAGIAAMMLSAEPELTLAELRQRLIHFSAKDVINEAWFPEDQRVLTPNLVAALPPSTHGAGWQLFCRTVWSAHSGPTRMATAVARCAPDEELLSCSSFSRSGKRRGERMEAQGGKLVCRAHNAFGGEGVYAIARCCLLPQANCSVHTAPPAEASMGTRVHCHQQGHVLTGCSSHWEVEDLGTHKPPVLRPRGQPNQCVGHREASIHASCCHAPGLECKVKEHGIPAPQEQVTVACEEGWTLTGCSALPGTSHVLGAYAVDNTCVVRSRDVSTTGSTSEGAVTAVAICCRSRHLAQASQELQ

[3] = target: T1, cynomolgus monkey PCSK9; test: ELISA
[4] = target: T2, human Proprotein Convertase …; test: ELISA; remark: listed apart in the source
[5] = target: T2, human Proprotein Convertase …; test: PCSK9-LDLR blocking ELISA
[6] = target: T2, human Proprotein Convertase …; test: ELISA; remark: listed apart in the source
[7] = target: T2, human Proprotein Convertase …; test: ELISA; remark: listed apart in the source

Binder | EC50 [2] [nM] | EC50 [3] [nM] | further results
B1 |  |  | EC50 [1]: 0.161 nM
B2 | 0.116 | 0.169 | 
B3 | 0.098 |  | 
B4 |  |  | EC50 [4]: 0.178 nM
B5 |  |  | IC50 [5]: 0.81 nM
B6 | 0.117 | 0.112 | 
B7 |  |  | EC50 [6]: 0.126 nM
B8 |  | 0.103 | EC50 [6]: 0.104 nM
B9 | 0.0874 | 0.106 | 
B10 |  |  | EC50 [6]: 0.124 nM
B11 |  |  | EC50 [7]: 0.0492 nM
